The target in test [1] is T1, 4-1BB (antigen of the Octet kinetics) (human, UniProt Q07011 24-186, limits assumed).
T1 construct: the whole entry is named
Description: Octet Red 96 kinetics. The text has this: To explore the binding kinetics of the humanized antibody, this example performed the affinity ranking by using Octet Red 96.

For the next test, the target named is T2, human 4-1 BB-Fc protein (human, UniProt Q07011 24-186).
T2 construct: also called extracellular domain 4-1 BB antigen; not shown: Fc part
Description: ELISA on plate-coated human 4-1BB-Fc (0.1 ug/ml), goat anti-human IgG-HRP, TMB. As for the experimental part: To evaluate the antigen binding activity, the antibody candidates were subjected to ELISA test. Briefly, microtiter plates were coated with human 4-1 BB-Fc protein at 0.1 μg/ml in PBS, 100 μl/well at 4° C. overnight, then blocked with 100 μl/well of 5% BSA. Serial dilutions of antibodies obtained in Example 1.1 were added to each well and incubated for 1-2 hours at RT. The plates were washed with PBS/Tween and then incubate with goat-anti-human IgG antibody conjugated with Horse Radish Peroxidase (HRP) for 1 hour at RT. After washing, the plates were developed with TMB substrate and analyzed by spectrophotometer at OD 450-630 nm.
Background: ELISA stands for enzyme-linked immunosorbent assay.

The values that follow come from patent publication US20220242961A1 (ABL BIO, published 2022).

In general, Kd refers to the free concentration of one partner at which half of the binding sites on the other are occupied at equilibrium, for simple one-to-one binding. The low end stands for a tighter complex, the high end for a looser complex. Broadly, the koff is the rate constant with which the complex falls apart. As usually defined, the kon is the rate constant with which the complex forms. High values mean faster complex formation, low ones slower complex formation. As usually defined, the EC50 (read off the curve) is the midpoint of the concentration-response curve.

Numbering of substitutions follows the chain as printed.

B1: 41B03 (antibody, human IgG4 S228P, V domains shown)
VH: EVQLLESGGGLVQPGGSLRLSCAASGFTFSSNVMNWVRQAPGKGLEWVSEISHSGSTNYNPSLKSRFTISRDNSKNTLYLQMNSLRAEDTAVYYCAVGAGNLGYWGQGTLVTVSS
VL: EIVLTQSPGTLSLSPGERATLSCQASQDISNYLNWYQQKPGQAPRLLIYGASSRATGIPDRFSGSGSGTDFTLTISRLEPEDFAVYYCQQYNSYPITFGQGTKLEIKR
In the case of B1, in test [1], the Kd turned out to be 790 pM, the off-rate constant (koff) turned out to be 0.000597 s⁻¹ and the association rate constant (kon) turned out to be 755000 M⁻¹ s⁻¹.

B2: 41B02 (antibody, human IgG4 S228P, lambda, V domains shown)
VH: EVQLLESGGGLVQPGGSLRLSCAASGFTFSGYDMSWVRQAPGKGLEWVSVIYPDDGNTYYADSVKGRFTISRDNSKNTLYLQMNSLRAEDAAVYYCAKHGGQKPTTKSSSAYGMDGWGQGTLVTVSS
VL: QSVLTQPPSASGTPGRRVTISCSGSSSNIGNNYVTWYQQLPGTAPKLLIYADSHRPSGVPDRFSGSKSGTSASLAISGLRSEDEADYYCATWDYSLSGYVFGGGTKLTVLG
notes: also called anti-4-1BB antibody 41B02; 41B02 clone
As for B2, the concentration for a half-maximal effect (EC50 (read off the curve)) with human 4-1 BB-Fc protein is about 30 pM.

B3: 41B02.01 (antibody, human IgG4 S228P, lambda, V domains shown)
VH: B2 VH with A91T
VL: B2 VL with R16Q
On to B3, for which the “EC50 (read off the curve)” value in the test with human 4-1 BB-Fc protein was about 30 pM.
